From patent publication US9644017B2, “Insulin derivatives having an extremely delayed time-action profile” (Sanofi-Aventis Deutschland GmbH, priority 2008, dated 2017)

Columns and labels:
[1] = cited from earlier work
[2] = system: healthy male normoglycemic Wistar rats; test: Blood glucose-lowering effect of novel insulin analogues in rats; type: in vivo, rat; conditions: 9 nmol/kg s.c., n=8, up to eight hours, FIG. 1
Experimental: The blood glucose-lowering effect of selected novel insulin analogues is tested in healthy male normoglycemic Wistar rats. Male rats receive subcutaneous injection of a dose of 9 nmol/kg of an insulin analogue. Blood samples are taken from the animals immediately before the injection of the insulin analogue and at regular intervals up to eight hours after the injection, and the blood glucose content therein is determined.

| Substance | calculated pI ([1]; calculated) | experimentally determined pI ([1]; experimentally determined) | hypoglycemic effect / time-action profile in rats [2] |
| --- | --- | --- | --- |
| Arg (A0), Gly (A21), Arg (B31), Arg (B32) human insulin [Compound 18 from Kohn et al.] | 7.58 | 7.3 | – |
| Gly (A21), Arg (B31), Arg (B32) human insulin [insulin glargine] | – | – | delayed action of insulin glargine cannot by contrast be unambiguously observed in rats |
